Laboratory results published in patent US20040126784.

These substances were tested on Histone H1.

Chain of PIM1 D186N mutant fused to GFP with a myc tag (chain, as listed by the source D186N): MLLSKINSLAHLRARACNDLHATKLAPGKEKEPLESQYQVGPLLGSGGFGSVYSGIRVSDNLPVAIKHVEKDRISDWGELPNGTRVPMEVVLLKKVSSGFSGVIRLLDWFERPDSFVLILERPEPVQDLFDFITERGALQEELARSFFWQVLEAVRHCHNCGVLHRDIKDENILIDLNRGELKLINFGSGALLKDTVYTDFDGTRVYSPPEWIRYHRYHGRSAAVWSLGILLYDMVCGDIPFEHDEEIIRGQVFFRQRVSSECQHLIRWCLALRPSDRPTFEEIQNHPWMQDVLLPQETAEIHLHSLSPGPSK
Chain of Pim1 K67A mutant fused to GFP with a myc tag (chain, as listed by the source K67A): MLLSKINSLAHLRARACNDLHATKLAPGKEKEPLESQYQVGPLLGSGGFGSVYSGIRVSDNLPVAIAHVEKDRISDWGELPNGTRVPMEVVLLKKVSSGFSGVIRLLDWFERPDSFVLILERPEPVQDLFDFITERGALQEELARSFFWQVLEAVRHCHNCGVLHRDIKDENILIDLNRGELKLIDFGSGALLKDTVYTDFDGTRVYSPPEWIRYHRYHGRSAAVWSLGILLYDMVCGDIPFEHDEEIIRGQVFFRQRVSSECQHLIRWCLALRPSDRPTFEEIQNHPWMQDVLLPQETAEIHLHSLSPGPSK
Chain of wild type PIM1 fused to GFP with a myc tag (chain, as listed by the source): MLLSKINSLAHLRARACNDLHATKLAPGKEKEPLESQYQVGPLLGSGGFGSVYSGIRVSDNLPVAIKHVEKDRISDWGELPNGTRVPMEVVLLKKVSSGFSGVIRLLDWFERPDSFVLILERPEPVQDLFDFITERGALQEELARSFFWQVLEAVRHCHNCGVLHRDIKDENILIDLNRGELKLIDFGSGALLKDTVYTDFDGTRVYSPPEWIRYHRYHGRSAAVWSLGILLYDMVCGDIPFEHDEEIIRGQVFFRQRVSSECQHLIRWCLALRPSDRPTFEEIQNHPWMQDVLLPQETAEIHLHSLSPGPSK

| Substance | kinase activity (immune complex kinase assay, 32P-ATP) |
| --- | --- |
| PIM1 D186N mutant fused to GFP with a myc tag | Wild type PIM1 exhibited kinase activity, while the mutant PIM1 proteins did not. |
| wild type PIM1 fused to GFP with a myc tag | Wild type PIM1 exhibited kinase activity, while the mutant PIM1 proteins did not. |
| Pim1 K67A mutant fused to GFP with a myc tag | Wild type PIM1 exhibited kinase activity, while the mutant PIM1 proteins did not. |
